Test results from patent US12139542B2, “Inhibitors of aortic carboxypeptidase-like protein (ACLP)” (TRUSTEES OF BOSTON UNIVERSITY, priority 2014, dated 2024).

B1: rACLP: recombinant full length mouse ACLP (amino acids 26-1128), BM40 signal sequence, C-terminal myc-His tag, from AD293 cells (protein)
chain: QTVLTDDEIEEFLEGFLSELETQSPPREDDVEVQPLPEPTQRPRKSKAGGKQRADVEVPPEKNKDKEKKGKKDKGPKATKPLEGSTRPTKKPKEKPPKATKKPKEKPPKATKKPKEKPPKATKKPKEKPPKATKRPSAGKKFSTVAPLETLDRLLPSPSNPSAQELPQKRDTPFPNAWQGQGEETQVEAKQPRPEPEEETEMPTLDYNDQIEKEDYEDFEYIRRQKQPRPTPSRRRLWPERPEEKTEEPEERKEVEPPLKPLLPPDYGDSYVIPNYDDLDYYFPHPPPQKPDVGQEVDEEKEEMKKPKKEGSSPKEDTEDKWTVEKNKDHKGPRKGEELEEEWAPVEKIKCPPIGMESHRIEDNQIRASSMLRHGLGAQRGRLNMQAGANEDDYYDGAWCAEDESQTQWIEVDTRRTTRFTGVITQGRDSSIHDDFVTTFFVGFSNDSQTWVMYTNGYEEMTFYGNVDKDTPVLSELPEPVVARFIRIYPLTWNGSLCMRLEVLGCPVTPVYSYYAQNEVVTTDSLDFRHHSYKDMRQLMKAVNEECPTITRTYSLGKSSRGLKIYAMEISDNPGDHELGEPEFRYTAGIHGNEVLGRELLLLLMQYLCQEYRDGNPRVRNLVQDTRIHLVPSLNPDGYEVAAQMGSEFGNWALGLWTEEGFDIFEDFPDLNSVLWAAEEKKWVPYRVPNNNLPIPERYLSPDATVSTEVRAIISWMEKNPFVLGANLNGGERLVSYPYDMARTPSQEQLLAEALAAARGEDDDGVSEAQETPDHAIFRWLAISFASAHLTMTEPYRGGCQAQDYTSGMGIVNGAKWNPRSGTFNDFSYLHTNCLELSVYLGCDKFPHESELPREWENNKEALLTFMEQVHRGIKGVVTDEQGIPIANATISVSGINHGVKTASGGDYWRILNPGEYRVTAHAEGYTSSAKICNVDYDIGATQCNFILARSNWKRIREILAMNGNRPILRVDPSRPMTPQQRRMQQRRLQYRLRMREQMRLRRLNSTAGPATSPTPALMPPPSPTPAITLRPWEVLPTTTAGWEESETETYTEVVTEFETEYGTDLEVEEIEEEEEEEEEEMDTGLTFPLTTVETYTVNFGDF
modifications: left off: small tags and cut ends
B2: C-terminal ACLP: recombinant C-terminal discoidin and carboxypeptidase domains of mouse ACLP, amino acids 374-1128 (protein)
chain: IKCPPIGMESHRIEDNQIRASSMLRHGLGAQRGRLNMQAGANEDDYYDGAWCAEDESQTQWIEVDTRRTTRFTGVITQGRDSSIHDDFVTTFFVGFSNDSQTWVMYTNGYEEMTFYGNVDKDTPVLSELPEPVVARFIRIYPLTWNGSLCMRLEVLGCPVTPVYSYYAQNEVVTTDSLDFRHHSYKDMRQLMKAVNEECPTITRTYSLGKSSRGLKIYAMEISDNPGDHELGEPEFRYTAGIHGNEVLGRELLLLLMQYLCQEYRDGNPRVRNLVQDTRIHLVPSLNPDGYEVAAQMGSEFGNWALGLWTEEGFDIFEDFPDLNSVLWAAEEKKWVPYRVPNNNLPIPERYLSPDATVSTEVRAIISWMEKNPFVLGANLNGGERLVSYPYDMARTPSQEQLLAEALAAARGEDDDGVSEAQETPDHAIFRWLAISFASAHLTMTEPYRGGCQAQDYTSGMGIVNGAKWNPRSGTFNDFSYLHTNCLELSVYLGCDKFPHESELPREWENNKEALLTFMEQVHRGIKGVVTDEQGIPIANATISVSGINHGVKTASGGDYWRILNPGEYRVTAHAEGYTSSAKICNVDYDIGATQCNFILARSNWKRIREILAMNGNRPILRVDPSRPMTPQQRRMQQRRLQYRLRMREQMRLRRLNSTAGPATSPTPALMPPPSPTPAITLRPWEVLPTTTAGWEESETETYTEVVTEFETEYGTDLEVEEIEEEEEEEEEEMDTGLTFPLTTVETYTVNFGDF
modifications: left off: small tags and cut ends

Legend:
[1] = test system: IMR90 human lung fibroblast cells; test: SMA and collagen I protein expression in IMR90 fibroblasts treated with recombinant ACLP proteins (Western blot); format: cell-based; details: IMR90, low serum media, 3.75 μg/ml (~30 nM) protein, 48 h, vs control cells
Description: Cell Treatments. IMR90 human lung fibroblasts (ATCC) and AD293 cells (Stratagene) were grown in DMEM supplemented with 10% FBS and 1% penicillin/streptomycin and incubated in a 5% CO2 atmosphere at 37° C. Mink lung epithelial cells stably transfected with the plasminogen activator inhibitor 1 (PAI-1) reporter construct driving luciferase expression (MLEC-TGFβ) (2) were grown in DMEM supplemented with 10% FBS and 1% penicillin/streptomycin, maintained in 250 μg/ml G418, and incubated in a 5% CO2 atmosphere at 37° C.
(§1) IMR90 cells and MLEC-TGFβ cells were generally treated for 30 min, 24 h, or 48 h in low serum media containing 0.5% FBS and 1% penicillin/streptomycin and incubated in a 5% CO2 atmosphere at 37° C. Cells were treated with 3.75 μg/ml (approximately 30 nM) rACLP (full length, Tsp, or C-terminal) or 1 nM TGFβ (R&D) (as a positive control), except where indicated. Cells treated for 30 min were serum starved in low serum media overnight preceding treatment.
Recombinant ACLP induces myofibroblast gene and protein expression. To further define the role of ACLP in the fibroblast to myofibroblast differentiation process, IMR90 human lung fibroblast cells were treated with rACLP. […] IMR90 cells were grown in media containing 3.75 μg/ml (30 nM) rACLP or 1 nM TGFβ as a positive control (FIG. 2A). […] These findings indicate that ACLP promotes the fibroblast to myofibroblast differentiation because it stimulates expression of SMA and collagen 1(3).
The N-terminal domain of ACLP promotes myofibroblast marker protein expression. Because the inventors discovered that the N-terminal Tsp motifs of ACLP (e.g. the PFD) is the domain responsible for promoting TGFβ signaling, the inventors next assessed which domain of ACLP is responsible for increased SMA and collagen I expression in lung myofibroblasts. IMR90 lung fibroblasts were treated in low serum media containing equal molar amounts of full-length protein, the pro-fibrotic domain (PFD) of ACLP, and C-terminal ACLP (˜30 nM) for 48 h (FIG. 7).

TGFβ = test: ACLP interaction with TGFβ (cell-free binding assay; latent TGFβ activation; data not shown)
[2] = test system: Smad3 phosphorylation (canonical TGFβ signaling); test: Smad3 phosphorylation in serum starved IMR90 fibroblasts (Western blot); format: cell-based, human; details: for Smad3 phosphorylation: serum starved IMR90, ~30 nM protein, 30 min, low serum media
Description: as §1
rACLP stimulates canonical TGFβ signaling (Published Tumelty et al JBC 2014). Because ACLP increases TGFβ signaling in a reporter assay, the role of ACLP in canonical TGFβ signaling was investigated in detail. In pulmonary fibroblasts, TGFβ promotes the phosphorylation of Smad3 which then binds to Smad4 and translocates into the nucleus to promote transcription of myofibroblast marker genes (4,5). Therefore, the effects of ACLP on Smad3 phosphorylation were measured. Serum starved IMR90 cells were treated with rACLP for 15, 30, 45, or 60 min, or 24 h (FIG. 3) (3).
Serum starved IMR90 human lung fibroblasts were treated with equivalent molar amounts (˜30 nM) of purified full-length, Tsp repeat domain, or C-terminal protein for 30 min in low serum media (FIG. 6).

TGFβ Receptor II (TβRII) = target: T1, TGFβ Receptor II (TβRII) (Mus musculus, UniProt Q62312); test: ACLP binding assay: biotinylated rACLP on streptavidin plate incubated with TβRII Fc; details: immobilized rACLP vs control-coated wells, p<0.05
T1 construct: contains the extracellular domain of mouse TβRII fused to the Fc domain of human IgG; purchased R&D
T1 sequence (Q62312 24-166 limits assumed): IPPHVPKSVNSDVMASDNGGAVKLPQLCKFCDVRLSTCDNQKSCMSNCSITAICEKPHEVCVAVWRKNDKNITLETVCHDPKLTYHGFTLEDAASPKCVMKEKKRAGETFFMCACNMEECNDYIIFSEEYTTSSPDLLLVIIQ
Description: ACLP binding assays. To determine if ACLP binds to TGFβ Receptor II (TORII), ACLP was biotinylated using an EZ-Link Sulfo-NHS-LC-Biotin kit (Thermo Scientific 21327) according to manufacturer's instructions. Briefly, rACLP (0.267 nM) was incubated with 20 fold molar excess of biotin for 30 min at room temperature. The protein was then dialyzed back into DPBS overnight. Biotinylated ACLP (1 μg/well) was immobilized on a PIERCE™ Streptavidin coated High-Binding Capacity Plate (Thermo-Scientific PI-15500) overnight at 4° C. in binding buffer made up of PBS with Mg^2+, Ca^2+, 0.1% BSA, and 0.05% Tween 20). The next day, the plates were washed with binding buffer, blocked with the same buffer containing 1% BSA at room temperature for 1 h, followed by incubation with increasing amounts of TβRII Fc (0, 10, 100, 1000 ng). Binding was detected with Human-IgG-HRP (GE Healthcare Life Sciences) followed by incubation with 3,3′,5,5′-Tetramethylbenzidine (TMB, eBioscience). The reaction was quenched with 2 M H2SO4 and absorbance at 450 nm was measured on the BioTek Synergy HT system.
ACLP binds to the TGFβ-receptor II. […] The TβRII Fc chimera contains the extracellular domain of mouse TβRII fused to the Fc domain of human IgG and has been used as a global inhibitor of TGFβ (6).

[3] = test system: Normal murine mammary gland epithelial cells (NMuMg); test: EMT marker qPCR in NMuMg cells treated with rACLP; format: cell-based, mouse
Description: Normal murine mammary gland epithelial cells (NMuMg) were treated with rACLP (30 nM) or TGFβ (1 nM) and RNA was analyzed by qPCR after 48 hours.

[4] = test system: TGFβ signaling activity (PAI-1 promoter luciferase); test: MLEC-TGFβ activity assay (PAI-1 promoter luciferase reporter); format: cell-based, mink; details: MLEC-TGFβ cells, treated overnight in low serum media
Description: Cell Treatments. IMR90 human lung fibroblasts (ATCC) and AD293 cells (Stratagene) were grown in DMEM supplemented with 10% FBS and 1% penicillin/streptomycin and incubated in a 5% CO2 atmosphere at 37° C. Mink lung epithelial cells stably transfected with the plasminogen activator inhibitor 1 (PAI-1) reporter construct driving luciferase expression (MLEC-TGFβ) (2) were grown in DMEM supplemented with 10% FBS and 1% penicillin/streptomycin, maintained in 250 μg/ml G418, and incubated in a 5% CO2 atmosphere at 37° C. IMR90 cells and MLEC-TGFβ cells were generally treated for 30 min, 24 h, or 48 h in low serum media containing 0.5% FBS and 1% penicillin/streptomycin and incubated in a 5% CO2 atmosphere at 37° C. Cells were treated with 3.75 μg/ml (approximately 30 nM) rACLP (full length, Tsp, or C-terminal) or 1 nM TGFβ (R&D) (as a positive control), except where indicated. Cells treated for 30 min were serum starved in low serum media overnight preceding treatment. MLEC-TGFβ activity assay. To measure TGFβ signaling activity, 1×10^4 MLEC-TGFβ cells/well were plated on white 96-well cell culture treated plates and allowed to adhere overnight. […] Luciferase activity was measured on an auto-injecting BioTek Synergy HT plate reader using 50 μl of luciferase assay substrate (Promega).

Row | Molecule | SMA protein expression [1] | collagen protein expression [1] | SMA protein expression ([1]; listed as Full-length ACLP) | collagen protein expression ([1]; listed as Full-length ACLP) | activation of latent TGFβ (TGFβ) | direct interaction with TGFβ (TGFβ; cell-free binding assay) | time at which Smad3 phosphorylation was first detected ([2]; serum starved IMR90, 3.75 μg/ml rACLP) | Smad3 phosphorylation, short-term treatment ([2]; serum starved IMR90, 3.75 μg/ml rACLP, 15-60 min) | Smad3 phosphorylation after 24 h ([2]; serum starved IMR90, 3.75 μg/ml rACLP, 24 h) | Smad3 phosphorylation [2] | binding to the TβRII Fc chimera (absorbance at 450 nm) (TGFβ Receptor II (TβRII)) | cellular morphology ([3]; ACLP treated cells, consistent with EMT) | epithelial marker occludin (qPCR) ([3]; NMuMg, rACLP 30 nM, 48 hours) | mesenchymal marker SMA (qPCR) ([3]; NMuMg, rACLP 30 nM, 48 hours) | mesenchymal marker Snail (qPCR) ([3]; NMuMg, rACLP 30 nM, 48 hours) | mesenchymal marker fibronectin (qPCR) ([3]; NMuMg, rACLP 30 nM, 48 hours) | amount that stimulated luciferase activity [4]
1 | B1 | induced an increase | induced an increase | promoted an increase | promoted an increase | did not appear to | did not appear to directly interact | 15 min | stimulated Smad3 phosphorylation | not detectable | stimulated Smad3 phosphorylation | significantly more binding | change in cellular morphology | decreasing | enhanced | enhanced | enhanced | –
2 | B2 | – | – | – | – | – | – | – | – | – | did not | – | – | – | – | – | – | > 25 µg/mL
